For this series, the target named is T1, Mouse MAVS, endogenous, on mitochondria of wild-type MEFs and BMDCs (UniProt Q8VCF0).
T1 sequence: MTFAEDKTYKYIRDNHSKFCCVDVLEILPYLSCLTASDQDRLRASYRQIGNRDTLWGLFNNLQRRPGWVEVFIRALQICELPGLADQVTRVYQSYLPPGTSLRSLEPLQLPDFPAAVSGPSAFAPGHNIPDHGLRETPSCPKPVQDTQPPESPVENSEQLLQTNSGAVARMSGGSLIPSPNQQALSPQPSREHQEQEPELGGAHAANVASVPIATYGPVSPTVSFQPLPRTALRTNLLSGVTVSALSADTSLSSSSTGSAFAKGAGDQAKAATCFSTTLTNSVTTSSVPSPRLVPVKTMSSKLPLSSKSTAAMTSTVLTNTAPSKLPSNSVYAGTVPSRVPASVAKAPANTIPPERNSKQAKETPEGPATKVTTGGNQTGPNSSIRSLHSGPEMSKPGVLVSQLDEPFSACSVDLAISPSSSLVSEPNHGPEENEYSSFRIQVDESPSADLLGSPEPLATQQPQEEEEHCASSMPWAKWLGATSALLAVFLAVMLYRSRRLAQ

“Coxsackievirus B3 (CVB3) 3C^pro protease”: the “MAVS cleavage in CVB3-infected MEFs (immunoblotting), 3 h post-infection” value is “the CVB3 3C^pro protease had produced only a small amount of cleaved MAVS” and the “MAVS cleavage in CVB3-infected MEFs (immunoblotting), 24 h post-infection” value is “CVB3 3C^pro had significantly cleaved MAVS”.

Source of the values: patent publication US20190099470.
